B1: Ras-related protein Rab-5A (Homo sapiens), P20339 (parent)
chain: MASRGATRPNGPNTGNKICQFKLVLLGESAVGKSSLVLRFVKGQFHEFQESTIGAAFLTQTVCLDDTTVKFEIWDTAGQERYHSLAPMYYRGAQAAIVVYDITNEESFARAKNWVKELQRQASPNIVIALSGNKADLANKRAVDFQEAQSYADDNSLLFMETSAKTSMNVNEIFMAIAKKLPKNEPQNPGANSARGRGVDLTEPTQPTRNQCCSN
partner: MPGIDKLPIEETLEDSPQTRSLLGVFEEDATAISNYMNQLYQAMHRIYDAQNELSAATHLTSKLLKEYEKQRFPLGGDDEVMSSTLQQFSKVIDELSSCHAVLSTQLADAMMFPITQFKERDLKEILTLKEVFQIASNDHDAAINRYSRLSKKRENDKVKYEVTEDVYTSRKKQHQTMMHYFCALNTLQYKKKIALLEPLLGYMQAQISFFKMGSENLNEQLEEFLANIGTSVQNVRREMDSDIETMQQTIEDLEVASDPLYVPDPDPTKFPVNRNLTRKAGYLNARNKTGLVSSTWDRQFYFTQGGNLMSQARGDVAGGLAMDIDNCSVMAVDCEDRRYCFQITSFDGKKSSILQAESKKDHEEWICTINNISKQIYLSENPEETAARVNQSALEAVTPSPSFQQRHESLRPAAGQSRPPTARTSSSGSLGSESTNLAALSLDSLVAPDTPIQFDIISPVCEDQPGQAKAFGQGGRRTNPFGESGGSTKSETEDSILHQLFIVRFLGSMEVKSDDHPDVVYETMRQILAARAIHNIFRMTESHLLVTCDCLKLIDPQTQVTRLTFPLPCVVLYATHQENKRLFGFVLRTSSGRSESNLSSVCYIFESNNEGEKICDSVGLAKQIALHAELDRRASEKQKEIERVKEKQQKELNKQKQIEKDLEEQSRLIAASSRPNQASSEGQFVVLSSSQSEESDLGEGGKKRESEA
B2: DCC-interacting protein 13-alpha (Homo sapiens), Q9UKG1 (parent)
chain: B1 partner

Variants of: B1
Details: with dp13a_human APPL1, Q9UKG1

Row | Variant | effect of a mutation on the interaction
1 | H46D | disrupting interaction

Variants of: B1
Details: with dp13a_human APPL1, Q9UKG1
Remark: another data set of the same source

Row | Variant | effect of a mutation on the interaction
2 | K42E | decreasing interaction

Variants of: B1
Details: with dp13a_human APPL1, Q9UKG1
Remark: another data set of the same source

Row | Variant | effect of a mutation on the interaction
3 | Y89R | decreasing interaction

Variants of: B1
Details: with dp13a_human APPL1, Q9UKG1
Remark: another data set of the same source

Row | Variant | effect of a mutation on the interaction
4 | L85R | disrupting interaction

Variants of: B1
Details: with dp13a_human APPL1, Q9UKG1
Remark: another data set of the same source

Row | Variant | effect of a mutation on the interaction
5 | F48N | decreasing interaction

Variants of: B1
Details: with dp13a_human APPL1, Q9UKG1
Remark: another data set of the same source

Row | Variant | effect of a mutation on the interaction
6 | M88S | decreasing interaction

Variants of: B1
Details: with dp13a_human APPL1, Q9UKG1
Remark: another data set of the same source

Row | Variant | effect of a mutation on the interaction
7 | W74R | disrupting interaction

Variants of: B2
Details: with rab21_human RAB21, Q9UL25
Chain of rab21_human RAB21, Q9UL25 (Q9UL25 whole entry): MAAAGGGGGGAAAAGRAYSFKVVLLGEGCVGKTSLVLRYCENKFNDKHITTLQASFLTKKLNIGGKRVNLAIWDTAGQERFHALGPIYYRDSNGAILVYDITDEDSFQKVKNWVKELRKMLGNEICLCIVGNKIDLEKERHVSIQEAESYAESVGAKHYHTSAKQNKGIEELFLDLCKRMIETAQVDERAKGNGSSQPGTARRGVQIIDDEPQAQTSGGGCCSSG

Row | Variant | effect of a mutation on the interaction
8 | D316R | disrupting interaction

Variants of: B2
Details: with rab21_human RAB21, Q9UL25
Remark: another data set of the same source

Row | Variant | effect of a mutation on the interaction
9 | G319R | disrupting interaction

Variants of: B2
Details: with rab5a_human RAB5A

Row | Variant | effect of a mutation on the interaction
10 | G319R | disrupting interaction

Variants of: B2
Details: with rab21_human RAB21, Q9UL25
Remark: another data set of the same source

Row | Variant | effect of a mutation on the interaction
11 | E28K | decreasing interaction

Variants of: B2
Details: with rab21_human RAB21, Q9UL25
Remark: another data set of the same source

Row | Variant | effect of a mutation on the interaction
12 | D348K | disrupting interaction

Variants of: B2
Details: with rab21_human RAB21, Q9UL25
Remark: another data set of the same source

Row | Variant | effect of a mutation on the interaction
13 | D324A | disrupting interaction

Variants of: B2
Details: with rab5a_human RAB5A
Remark: another data set of the same source

Row | Variant | effect of a mutation on the interaction
14 | D324A | disrupting interaction

Variants of: B2
Details: with rab21_human RAB21, Q9UL25
Remark: another data set of the same source

Row | Variant | effect of a mutation on the interaction
15 | L321D | decreasing interaction

Variants of: B2
Details: with rab5a_human RAB5A
Remark: another data set of the same source

Row | Variant | effect of a mutation on the interaction
16 | L321D | disrupting interaction

Variants of: B2
Details: with rab5a_human RAB5A
Remark: another data set of the same source

Row | Variant | effect of a mutation on the interaction
17 | N308D | disrupting interaction

Variants of: B2
Details: with rab21_human RAB21, Q9UL25
Remark: another data set of the same source

Row | Variant | effect of a mutation on the interaction
18 | N308D | disrupting interaction

Variants of: B2
Details: with rab5a_human RAB5A
Remark: another data set of the same source

Row | Variant | effect of a mutation on the interaction
19 | M310K | disrupting interaction

Variants of: B2
Details: with rab21_human RAB21, Q9UL25
Remark: another data set of the same source

Row | Variant | effect of a mutation on the interaction
20 | M310K | disrupting interaction

Variants of: B2
Details: with rab5a_human RAB5A
Remark: another data set of the same source

Row | Variant | effect of a mutation on the interaction
21 | V25D | decreasing interaction

Variants of: B2
Details: with rab21_human RAB21, Q9UL25
Remark: another data set of the same source

Row | Variant | effect of a mutation on the interaction
22 | V25D | decreasing interaction

Variants of: B2
Details: with rab5a_human RAB5A
Remark: another data set of the same source

Row | Variant | effect of a mutation on the interaction
23 | A318D | disrupting interaction
